The values that follow are results of earlier work, collected in article PMC2996745.

The target of the data set is VEGFR2 (flk-1) (Homo sapiens) (UniProt P35968).
Chain of UniProt P35968 (P35968 20-1356): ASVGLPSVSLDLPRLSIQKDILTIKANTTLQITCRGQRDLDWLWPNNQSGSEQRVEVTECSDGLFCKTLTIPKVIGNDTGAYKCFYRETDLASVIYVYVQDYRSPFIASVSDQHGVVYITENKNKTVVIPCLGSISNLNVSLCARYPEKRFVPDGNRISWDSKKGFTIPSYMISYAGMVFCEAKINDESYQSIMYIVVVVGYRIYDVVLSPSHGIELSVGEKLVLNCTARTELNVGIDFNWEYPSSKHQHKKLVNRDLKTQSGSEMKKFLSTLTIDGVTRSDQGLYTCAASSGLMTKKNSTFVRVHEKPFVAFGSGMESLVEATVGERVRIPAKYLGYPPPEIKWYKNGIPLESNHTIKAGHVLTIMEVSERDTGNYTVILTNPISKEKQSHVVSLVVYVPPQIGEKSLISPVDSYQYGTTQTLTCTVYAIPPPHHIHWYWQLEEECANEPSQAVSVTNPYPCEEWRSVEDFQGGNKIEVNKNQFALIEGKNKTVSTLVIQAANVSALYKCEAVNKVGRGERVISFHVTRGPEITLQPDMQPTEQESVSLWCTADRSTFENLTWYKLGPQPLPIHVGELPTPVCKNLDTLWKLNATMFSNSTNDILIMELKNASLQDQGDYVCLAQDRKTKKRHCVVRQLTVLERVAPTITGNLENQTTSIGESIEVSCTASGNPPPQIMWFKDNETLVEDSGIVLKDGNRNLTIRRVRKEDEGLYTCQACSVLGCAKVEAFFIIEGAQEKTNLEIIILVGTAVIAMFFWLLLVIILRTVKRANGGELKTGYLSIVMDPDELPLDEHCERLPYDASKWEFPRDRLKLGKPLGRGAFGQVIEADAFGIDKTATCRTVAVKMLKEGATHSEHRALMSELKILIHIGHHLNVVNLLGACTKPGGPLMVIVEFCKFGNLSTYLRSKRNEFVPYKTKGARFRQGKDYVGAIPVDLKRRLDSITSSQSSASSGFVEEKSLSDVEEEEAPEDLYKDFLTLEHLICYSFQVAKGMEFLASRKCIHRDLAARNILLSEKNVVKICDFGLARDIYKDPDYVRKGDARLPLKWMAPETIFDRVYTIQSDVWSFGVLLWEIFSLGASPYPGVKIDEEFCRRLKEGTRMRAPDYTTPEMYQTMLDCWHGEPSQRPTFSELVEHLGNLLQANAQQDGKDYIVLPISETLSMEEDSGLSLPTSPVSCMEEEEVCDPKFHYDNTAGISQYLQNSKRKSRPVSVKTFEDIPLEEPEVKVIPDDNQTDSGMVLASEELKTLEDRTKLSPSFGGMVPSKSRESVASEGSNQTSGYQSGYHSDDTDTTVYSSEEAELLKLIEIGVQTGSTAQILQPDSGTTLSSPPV

By Kd is commonly meant the constant that tells how readily two partners part at equilibrium. With VEGF-A (from UniProt P15692), the Kd is 0.1 nM.
